From US20150203577A1 (Chugai, published 2015)

Key:
[1] = target: T1, mouse FcγRIII extracellular domain, C-terminal His tag (mouse, UniProt P08508 31-215); experiment: SPR (Biacore T200); KD of H237-mIgG1/MRAL-k0 / KD of variant
T1 construct: Whole entry named; also called mFcγRIII; mFcgRIII
T1 chain: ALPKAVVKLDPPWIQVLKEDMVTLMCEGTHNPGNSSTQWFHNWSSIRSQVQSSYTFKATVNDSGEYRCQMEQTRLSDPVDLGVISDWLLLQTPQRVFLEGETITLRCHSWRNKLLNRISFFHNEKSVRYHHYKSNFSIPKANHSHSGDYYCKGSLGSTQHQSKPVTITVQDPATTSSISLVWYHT

[2] = target: T2, mouse FcγRII extracellular domain, C-terminal His tag (mouse, UniProt P08101 30-210); experiment: as above
T2 construct: Whole entry named; also called mFcγRII; mFcgRII
T2 sequence: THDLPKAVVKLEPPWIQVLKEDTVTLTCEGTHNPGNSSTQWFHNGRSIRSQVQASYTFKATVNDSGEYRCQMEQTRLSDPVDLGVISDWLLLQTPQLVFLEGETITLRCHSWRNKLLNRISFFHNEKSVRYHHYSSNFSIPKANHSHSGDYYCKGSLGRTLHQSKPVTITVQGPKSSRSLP

B1: H237-MB609/MRAL-k0 (antibody, mouse IgG1, kappa)
heavy: QVQLQESGPGLVKPSETLSLTCAVSGHSISHDHAWSWVRQPPGEGLEWIGFISYSGITNYNPSLQGRVTISRDNSKNTLYLQMNSLRAEDTAVYYCARSLARTTAMDYWGEGTLVTVSSAKTTPPSVYPLAPGSAAQTNSMVTLGCLVKGYFPEPVTVTWNSGSLSSGVHTFPAVLQSDLYTLSSSVTVPSSTWPSETVTCNVAHPASSTKVDKKIVPRDCGCKPCICTVPEVEEVFIFPPKPKDVLTITLTPKVTCVVVDIMKDDPEVQFSWFVDDVEVHTAQTQPREEQFNSTFRSVSELPIMHQDWLNGKEFKCRVNSAAFPAPIEKTISKTKGRPKAPQVYTIPPPKEQMAKDKVSLTCMITDFFPEDITVEWQWNGQPAENYKNTQPIMDTDGSYFVYSKLNVQKSNWEAGNTFTCSVLHEGLHNHHTEKSLSHSPGK
light: not shown
notes: copies: 2 + 2
relative mFcγRIII-binding activity (mIgG1 = 1) [1]: 0.32 fold | relative mFcγRII-binding activity (mIgG1 = 1) [2]: 2.66 fold

B2: H237-MB616/MRAL-k0 (antibody, mouse IgG1, kappa)
heavy: QVQLQESGPGLVKPSETLSLTCAVSGHSISHDHAWSWVRQPPGEGLEWIGFISYSGITNYNPSLQGRVTISRDNSKNTLYLQMNSLRAEDTAVYYCARSLARTTAMDYWGEGTLVTVSSAKTTPPSVYPLAPGSAAQTNSMVTLGCLVKGYFPEPVTVTWNSGSLSSGVHTFPAVLQSDLYTLSSSVTVPSSTWPSETVTCNVAHPASSTKVDKKIVPRDCGCKPCICTVPEVEDVFIFPPKPKDVLTITLTPKVTCVVVDIMKDDPEVQFSWFVDDVEVHTAQTQPREEQFNSTFRSVSELPIMHQDWLNGKEFKCRVNSAAFPAPIEKTISKTKGRPKAPQVYTIPPPKEQMAKDKVSLTCMITDFFPEDITVEWQWNGQPAENYKNTQPIMDTDGSYFVYSKLNVQKSNWEAGNTFTCSVLHEGLHNHHTEKSLSHSPGK
light: not shown
notes: copies: 2 + 2
relative mFcγRIII-binding activity (mIgG1 = 1) [1]: 0.57 fold | relative mFcγRII-binding activity (mIgG1 = 1) [2]: 4.06 fold

B3: H237-MB611/MRAL-k0 (antibody, mouse IgG1, kappa)
heavy: QVQLQESGPGLVKPSETLSLTCAVSGHSISHDHAWSWVRQPPGEGLEWIGFISYSGITNYNPSLQGRVTISRDNSKNTLYLQMNSLRAEDTAVYYCARSLARTTAMDYWGEGTLVTVSSAKTTPPSVYPLAPGSAAQTNSMVTLGCLVKGYFPEPVTVTWNSGSLSSGVHTFPAVLQSDLYTLSSSVTVPSSTWPSETVTCNVAHPASSTKVDKKIVPRDCGCKPCICTVPEEDEVFIFPPKPKDVLTITLTPKVTCVVVDISKDDPEVQFSWFVDDVEVHTAQTQPREEQFNSTFRSVSELPIMHQDWLNGKEFKCRVNSAAFPAPIEKTISKTKGRPKAPQVYTIPPPKEQMAKDKVSLTCMITDFFPEDITVEWQWNGQPAENYKNTQPIMDTDGSYFVYSKLNVQKSNWEAGNTFTCSVLHEGLHNHHTEKSLSHSPGK
light: not shown
notes: copies: 2 + 2
relative mFcγRIII-binding activity (mIgG1 = 1) [1]: 0.09 fold | relative mFcγRII-binding activity (mIgG1 = 1) [2]: 1.11 fold

B4: H237-MB617/MRAL-k0 (antibody, mouse IgG1, kappa)
heavy: QVQLQESGPGLVKPSETLSLTCAVSGHSISHDHAWSWVRQPPGEGLEWIGFISYSGITNYNPSLQGRVTISRDNSKNTLYLQMNSLRAEDTAVYYCARSLARTTAMDYWGEGTLVTVSSAKTTPPSVYPLAPGSAAQTNSMVTLGCLVKGYFPEPVTVTWNSGSLSSGVHTFPAVLQSDLYTLSSSVTVPSSTWPSETVTCNVAHPASSTKVDKKIVPRDCGCKPCICTVPEESDVDIFPPKPKDVLTITLTPKVTCVVVDISKDDPEVQFSWFVDDVEVHTAQTQPREEQFNSTFRSVSELPIMHQDWLNGKEFKCRVNSAAFPAPIEKTISKTKGRPKAPQVYTIPPPKEQMAKDKVSLTCMITDFFPEDITVEWQWNGQPAENYKNTQPIMDTDGSYFVYSKLNVQKSNWEAGNTFTCSVLHEGLHNHHTEKSLSHSPGK
light: not shown
notes: copies: 2 + 2
relative mFcγRIII-binding activity (mIgG1 = 1) [1]: 0.15 fold | relative mFcγRII-binding activity (mIgG1 = 1) [2]: 0.84 fold

B5: H237-MB615/MRAL-k0 (antibody, mouse IgG1, kappa)
heavy: QVQLQESGPGLVKPSETLSLTCAVSGHSISHDHAWSWVRQPPGEGLEWIGFISYSGITNYNPSLQGRVTISRDNSKNTLYLQMNSLRAEDTAVYYCARSLARTTAMDYWGEGTLVTVSSAKTTPPSVYPLAPGSAAQTNSMVTLGCLVKGYFPEPVTVTWNSGSLSSGVHTFPAVLQSDLYTLSSSVTVPSSTWPSETVTCNVAHPASSTKVDKKIVPRDCGCKPCICTVPEVEDVDIFPPKPKDVLTITLTPKVTCVVVDISKDDPEVQFSWFVDDVEVHTAQTQPREEQFNSTFRSVSELPIMHQDWLNGKEFKCRVNSAAFPAPIEKTISKTKGRPKAPQVYTIPPPKEQMAKDKVSLTCMITDFFPEDITVEWQWNGQPAENYKNTQPIMDTDGSYFVYSKLNVQKSNWEAGNTFTCSVLHEGLHNHHTEKSLSHSPGK
light: not shown
notes: copies: 2 + 2
relative mFcγRIII-binding activity (mIgG1 = 1) [1]: 0.14 fold | relative mFcγRII-binding activity (mIgG1 = 1) [2]: 0.59 fold

B6: H237-MB620/MRAL-k0 (antibody, mouse IgG1, kappa)
heavy: QVQLQESGPGLVKPSETLSLTCAVSGHSISHDHAWSWVRQPPGEGLEWIGFISYSGITNYNPSLQGRVTISRDNSKNTLYLQMNSLRAEDTAVYYCARSLARTTAMDYWGEGTLVTVSSAKTTPPSVYPLAPGSAAQTNSMVTLGCLVKGYFPEPVTVTWNSGSLSSGVHTFPAVLQSDLYTLSSSVTVPSSTWPSETVTCNVAHPASSTKVDKKIVPRDCGCKPCICTVPEVDDVFIFPPKPKDVLTITLTPKVTCVVVDIMKDDPEVQFSWFVDDVEVHTAQTQPREEQFNSTFRSVSELPIMHQDWLNGKEFKCRVNSAAFPAPIEKTISKTKGRPKAPQVYTIPPPKEQMAKDKVSLTCMITDFFPEDITVEWQWNGQPAENYKNTQPIMDTDGSYFVYSKLNVQKSNWEAGNTFTCSVLHEGLHNHHTEKSLSHSPGK
light: not shown
notes: copies: 2 + 2
relative mFcγRIII-binding activity (mIgG1 = 1) [1]: 0.07 fold | relative mFcγRII-binding activity (mIgG1 = 1) [2]: 0.23 fold

B7: H237-MB619/MRAL-k0 (antibody, mouse IgG1, kappa)
heavy: QVQLQESGPGLVKPSETLSLTCAVSGHSISHDHAWSWVRQPPGEGLEWIGFISYSGITNYNPSLQGRVTISRDNSKNTLYLQMNSLRAEDTAVYYCARSLARTTAMDYWGEGTLVTVSSAKTTPPSVYPLAPGSAAQTNSMVTLGCLVKGYFPEPVTVTWNSGSLSSGVHTFPAVLQSDLYTLSSSVTVPSSTWPSETVTCNVAHPASSTKVDKKIVPRDCGCKPCICTVPEVDDVDIFPPKPKDVLTITLTPKVTCVVVDISKDDPEVQFSWFVDDVEVHTAQTQPREEQFNSTFRSVSELPIMHQDWLNGKEFKCRVNSAAFPAPIEKTISKTKGRPKAPQVYTIPPPKEQMAKDKVSLTCMITDFFPEDITVEWQWNGQPAENYKNTQPIMDTDGSYFVYSKLNVQKSNWEAGNTFTCSVLHEGLHNHHTEKSLSHSPGK
light: not shown
notes: copies: 2 + 2
relative mFcγRIII-binding activity (mIgG1 = 1) [1]: 0.16 fold | relative mFcγRII-binding activity (mIgG1 = 1) [2]: 0.62 fold

B8: H237-MB613/MRAL-k0 (antibody, mouse IgG1, kappa)
heavy: QVQLQESGPGLVKPSETLSLTCAVSGHSISHDHAWSWVRQPPGEGLEWIGFISYSGITNYNPSLQGRVTISRDNSKNTLYLQMNSLRAEDTAVYYCARSLARTTAMDYWGEGTLVTVSSAKTTPPSVYPLAPGSAAQTNSMVTLGCLVKGYFPEPVTVTWNSGSLSSGVHTFPAVLQSDLYTLSSSVTVPSSTWPSETVTCNVAHPASSTKVDKKIVPRDCGCKPCICTVPEVDEVFIFPPKPKDVLTITLTPKVTCVVVDIMKDDPEVQFSWFVDDVEVHTAQTQPREEQFNSTFRSVSELPIMHQDWLNGKEFKCRVNSAAFPAPIEKTISKTKGRPKAPQVYTIPPPKEQMAKDKVSLTCMITDFFPEDITVEWQWNGQPAENYKNTQPIMDTDGSYFVYSKLNVQKSNWEAGNTFTCSVLHEGLHNHHTEKSLSHSPGK
light: not shown
notes: copies: 2 + 2
relative mFcγRIII-binding activity (mIgG1 = 1) [1]: 0.06 fold | relative mFcγRII-binding activity (mIgG1 = 1) [2]: 0.24 fold

B9: H237-MB612/MRAL-k0 (antibody, mouse IgG1, kappa)
heavy: QVQLQESGPGLVKPSETLSLTCAVSGHSISHDHAWSWVRQPPGEGLEWIGFISYSGITNYNPSLQGRVTISRDNSKNTLYLQMNSLRAEDTAVYYCARSLARTTAMDYWGEGTLVTVSSAKTTPPSVYPLAPGSAAQTNSMVTLGCLVKGYFPEPVTVTWNSGSLSSGVHTFPAVLQSDLYTLSSSVTVPSSTWPSETVTCNVAHPASSTKVDKKIVPRDCGCKPCICTVPEVDEVDIFPPKPKDVLTITLTPKVTCVVVDISKDDPEVQFSWFVDDVEVHTAQTQPREEQFNSTFRSVSELPIMHQDWLNGKEFKCRVNSAAFPAPIEKTISKTKGRPKAPQVYTIPPPKEQMAKDKVSLTCMITDFFPEDITVEWQWNGQPAENYKNTQPIMDTDGSYFVYSKLNVQKSNWEAGNTFTCSVLHEGLHNHHTEKSLSHSPGK
light: not shown
notes: copies: 2 + 2
relative mFcγRIII-binding activity (mIgG1 = 1) [1]: 0.3 fold | relative mFcγRII-binding activity (mIgG1 = 1) [2]: 0.81 fold

B10: H237-MB614/MRAL-k0 (antibody, mouse IgG1, kappa)
heavy: QVQLQESGPGLVKPSETLSLTCAVSGHSISHDHAWSWVRQPPGEGLEWIGFISYSGITNYNPSLQGRVTISRDNSKNTLYLQMNSLRAEDTAVYYCARSLARTTAMDYWGEGTLVTVSSAKTTPPSVYPLAPGSAAQTNSMVTLGCLVKGYFPEPVTVTWNSGSLSSGVHTFPAVLQSDLYTLSSSVTVPSSTWPSETVTCNVAHPASSTKVDKKIVPRDCGCKPCICTVPEEEDVFIFPPKPKDVLTITLTPKVTCVVVDISKDDPEVQFSWFVDDVEVHTAQTQPREEQFNSTFRSVSELPIMHQDWLNGKEFKCRVNSAAFPAPIEKTISKTKGRPKAPQVYTIPPPKEQMAKDKVSLTCMITDFFPEDITVEWQWNGQPAENYKNTQPIMDTDGSYFVYSKLNVQKSNWEAGNTFTCSVLHEGLHNHHTEKSLSHSPGK
light: not shown
notes: copies: 2 + 2
relative mFcγRIII-binding activity (mIgG1 = 1) [1]: 0.84 fold | relative mFcγRII-binding activity (mIgG1 = 1) [2]: 10.9 fold

B11: H237-MB618/MRAL-k0 (antibody, mouse IgG1, kappa)
heavy: QVQLQESGPGLVKPSETLSLTCAVSGHSISHDHAWSWVRQPPGEGLEWIGFISYSGITNYNPSLQGRVTISRDNSKNTLYLQMNSLRAEDTAVYYCARSLARTTAMDYWGEGTLVTVSSAKTTPPSVYPLAPGSAAQTNSMVTLGCLVKGYFPEPVTVTWNSGSLSSGVHTFPAVLQSDLYTLSSSVTVPSSTWPSETVTCNVAHPASSTKVDKKIVPRDCGCKPCICTVPEEDDVFIFPPKPKDVLTITLTPKVTCVVVDISKDDPEVQFSWFVDDVEVHTAQTQPREEQFNSTFRSVSELPIMHQDWLNGKEFKCRVNSAAFPAPIEKTISKTKGRPKAPQVYTIPPPKEQMAKDKVSLTCMITDFFPEDITVEWQWNGQPAENYKNTQPIMDTDGSYFVYSKLNVQKSNWEAGNTFTCSVLHEGLHNHHTEKSLSHSPGK
light: not shown
notes: copies: 2 + 2
relative mFcγRIII-binding activity (mIgG1 = 1) [1]: 0.13 fold | relative mFcγRII-binding activity (mIgG1 = 1) [2]: 1.63 fold
